Data taken from US8673862 (dated 2014).

T1: angiotensin converting enzyme (ACE) (UniProt P12821)
T1 chain: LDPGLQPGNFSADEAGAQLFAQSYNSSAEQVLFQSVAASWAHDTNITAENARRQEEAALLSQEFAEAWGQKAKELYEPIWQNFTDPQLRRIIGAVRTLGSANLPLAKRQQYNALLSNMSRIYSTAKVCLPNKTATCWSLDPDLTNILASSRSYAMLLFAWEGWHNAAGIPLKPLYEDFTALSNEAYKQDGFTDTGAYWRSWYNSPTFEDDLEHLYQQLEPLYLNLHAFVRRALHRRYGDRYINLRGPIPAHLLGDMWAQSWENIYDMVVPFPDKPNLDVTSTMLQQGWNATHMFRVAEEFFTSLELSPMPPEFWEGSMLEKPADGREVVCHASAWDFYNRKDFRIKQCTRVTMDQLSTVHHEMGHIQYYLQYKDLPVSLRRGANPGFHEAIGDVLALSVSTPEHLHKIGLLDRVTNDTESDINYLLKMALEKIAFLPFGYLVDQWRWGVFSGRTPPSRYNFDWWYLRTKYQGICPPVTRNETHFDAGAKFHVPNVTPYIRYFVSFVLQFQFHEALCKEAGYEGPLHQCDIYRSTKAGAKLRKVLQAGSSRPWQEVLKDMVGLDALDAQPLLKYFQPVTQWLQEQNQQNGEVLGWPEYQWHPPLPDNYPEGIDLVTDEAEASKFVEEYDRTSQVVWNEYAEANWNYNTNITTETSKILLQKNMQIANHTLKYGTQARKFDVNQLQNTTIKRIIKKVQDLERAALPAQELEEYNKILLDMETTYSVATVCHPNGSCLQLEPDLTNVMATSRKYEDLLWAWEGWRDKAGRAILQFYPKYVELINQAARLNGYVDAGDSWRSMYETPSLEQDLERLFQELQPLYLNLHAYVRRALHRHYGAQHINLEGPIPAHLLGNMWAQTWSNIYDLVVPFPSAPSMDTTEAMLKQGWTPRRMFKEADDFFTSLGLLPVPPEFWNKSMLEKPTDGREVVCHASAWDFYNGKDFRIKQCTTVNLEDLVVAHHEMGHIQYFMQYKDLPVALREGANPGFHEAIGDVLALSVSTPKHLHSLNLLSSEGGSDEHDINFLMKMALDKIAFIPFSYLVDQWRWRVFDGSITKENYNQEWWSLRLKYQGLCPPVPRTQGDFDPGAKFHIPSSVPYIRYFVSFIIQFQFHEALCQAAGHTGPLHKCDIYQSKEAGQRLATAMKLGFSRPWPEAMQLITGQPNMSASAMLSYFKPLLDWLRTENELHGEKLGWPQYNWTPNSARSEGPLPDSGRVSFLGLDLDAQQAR

B1: NSL (peptide)
chain: NSL
B2: GNF (peptide)
chain: GNF
B3: FV (peptide)
chain: FV
B4: VVN (peptide)
chain: VVN
B5: PDT (peptide)
chain: PDT
B6: GLF (peptide)
chain: GLF
B7: TF (peptide)
chain: TF
B8: LF (peptide)
chain: LF
B9: FVNHF (peptide)
chain: FVNHF
B10: VGGS (peptide)
chain: VGGS
B11: WN (peptide)
chain: WN
B12: NDEG (peptide)
chain: NDEG
B13: TSF (peptide)
chain: TSF
B14: KK (peptide)
chain: KK
B15: TYA (peptide)
chain: TYA
B16: YY (peptide)
chain: YY
B17: LL (peptide)
chain: LL

Target: T1, angiotensin converting enzyme (ACE)
Experiment: other, ACE inhibition
B1 showed an IC50 of 64.9 µM. Work on B2 yielded an IC50 of 26.9 µM. B3 was tested, and the IC50 was 979 µM. With B4 the IC50 was 77 µM. B5 gave an IC50 of 272 µM. Binder B6 has an IC50 of 83 µM. B7 gave an IC50 of 46.2 µM. Binder B8 has an IC50 of 83 µM. For B9, the IC50 was 51.1 µM. B10 gave an IC50 of 35.5 µM. With B11 the IC50 was 368 µM. B12 showed an IC50 of 768 µM. B13 was tested, and the IC50 was 15.6 µM. Work on B14 yielded an IC50 of 921 µM. B15 gave an IC50 of 526 µM. B16 was tested, and the IC50 was 257 µM. With B17 the IC50 was 345 µM.
